Here are results for 2 substances from patent US20100227805A1.

Holding throughout (test): cell-based or functional assay
Assay [1] addresses human MIP-1α (CCL3) (human) (UniProt P10147).
In assay [2] the target is murine RANTES (CCL5) (murine) (UniProt P30882).
The target of assay [3] is murine MIP-1β (CCL4) (murine) (UniProt P14097).
murine MIP-1β (CCL4) (murine), sequence (P14097 24-92 limits assumed): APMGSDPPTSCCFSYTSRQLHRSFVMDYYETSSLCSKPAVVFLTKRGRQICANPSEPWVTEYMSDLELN

murine RANTES (CCL5) (murine), sequence (P30882 24-91 limits assumed): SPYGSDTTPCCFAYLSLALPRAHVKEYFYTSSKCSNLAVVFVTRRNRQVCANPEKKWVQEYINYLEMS
human MIP-1α (CCL3) (human), sequence (P10147 27-92 limits assumed): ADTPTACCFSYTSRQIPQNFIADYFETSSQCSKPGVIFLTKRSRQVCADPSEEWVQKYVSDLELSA

With hCCR5(EC2)-IgG (Fc fusion), the inhibition of chemokine-induced THP-1 cell migration (transwell chemotaxis assay) in assay [1] worked out at 50%.
Regarding mCCR5(EC3)-IgG (Fc fusion), the inhibition of chemokine-induced THP-1 cell migration (transwell chemotaxis assay) in assay [2] and in assay [3] was 50% throughout.
